{"source": "patent US10588946B2", "about": "“Peptide for promoting bone formation or inhibiting bone resorption and use thereof” (SEOUL NATIONAL UNIVERSITY R&DB FOUNDATION, priority 2015, dated 2020)", "molecules": {"B1": {"name": "rVn-FII: recombinant human vitronectin truncation, 173 residues, amino acids at positions 150 to 322 (protein)", "chain": "PAEEELCSGKPFDAFTDLKNGSLFAFRGQYCYELDEKAVRPGYPKLIRDVWGIEGPIDAAFTRINCQGKTYLFKGSQYWRFEDGVLDPDYPRNISDGFDGIPDNVDAALALPAHSYSGRERVYFFKGKQYWEYQFQHQPSQEECEGSSLSAVFEHFAMMQRDSWEDIFELLFW", "modifications": "rVn-FII"}, "B2": {"name": "human plasma vitronectin: Human vitronectin purchased from Millipore (protein, UniProt P04004 20-478, looked up)", "Vitronectin": "DQESCKGRCTEGFNVDKKCQCDELCSYYQSCCTDYTAECKPQVTRGDVFTMPEDEYTVYDDGEEKNNATVHEQVGGPSLTSDLQAQSKGNPEQTPVLKPEEEAPAPEVGASKPEGIDSRPETLHPGRPQPPAEEELCSGKPFDAFTDLKNGSLFAFRGQYCYELDEKAVRPGYPKLIRDVWGIEGPIDAAFTRINCQGKTYLFKGSQYWRFEDGVLDPDYPRNISDGFDGIPDNVDAALALPAHSYSGRERVYFFKGKQYWEYQFQHQPSQEECEGSSLSAVFEHFAMMQRDSWEDIFELLFWGRTSAGTRQPQFISRDWHGVPGQVDAAMAGRIYISGMAPRPSLAKKQRFRHRNRKGYRSQRGHSRGRNQNSRRPSRATWLSLFSSEESNLGANNYDDYRMDWLVPATCEPIQSVFFFSGDKYYRVNLRTRRVDTVDPPYPRSIAQYWLGCPAPGHL"}, "B3": {"name": "rVn-FI: recombinant human vitronectin truncation I expressed in E. coli (protein)", "chain": "DQESCKGRCTEGFNVDKKCQCDELCSYYQSCCTDYTAECKPQVTRGDVFTMPEDEYTVYDDGEEKNNATVHEQVGGPSLTSDLQAQSKGNPEQTPVLKPEEEAPAPEVGASKPEGIDSRPETLHPGRPQP", "modifications": "rVn-FI", "notes": "recombinant human vitronectin truncation I expressed in E. coli"}, "B4": {"name": "rVn-FIII: recombinant human vitronectin truncation III expressed in E. coli (protein)", "chain": "GRTSAGTRQPQFISRDWHGVPGQVDAAMAGRIYISGMAPRPSLAKKQRFRHRNRKGYRSQRGHSRGRNQNSRRPSRATWLSLFSSEESNLGANNYDDYRMDWLVPATCEPIQSVFFFSGDKYYRVNLRTRRVDTVDPPYPRSIAQYWLGCPAPGHL", "modifications": "rVn-FIII", "notes": "recombinant human vitronectin truncation III expressed in E. coli"}}, "key": {"osteogenic cells [1]": {"system": "osteogenic cells", "assay": "Adhesion inhibition assay (cell attachment to VnP-16 after preincubation)", "format": "cell-based, human", "settings": "5 mM EDTA, 500 μM MnCl2, 100 μg/mL heparin, 10 μg/mL blocking antibody; VnP-16 9.1 μg/cm^2, 1 hour", "procedure": "Cells (5×10^4 cells/250 μL) were preincubated with 5 mM EDTA, 500 μM MnCl2, 100 μg/mL heparin, and 10 μg/mL function-blocking antibodies against integrin α1 (FB12), α2 (P1E6), α3 (P1B5), α4 (P4C2), α5 (P1D6), α6 (NKI-GoH3), β3 (B3A; Chemicon), av (AV1), β1 (6S6; Millipore), or β3 (B3A) subunits at 37° C. for 15 minutes. […] The attached cells were quantified as described in Example 6."}, "FAK": {"molecular_target": "FAK (Homo sapiens, UniProt Q05397)", "sequence (Q05397 whole entry)": "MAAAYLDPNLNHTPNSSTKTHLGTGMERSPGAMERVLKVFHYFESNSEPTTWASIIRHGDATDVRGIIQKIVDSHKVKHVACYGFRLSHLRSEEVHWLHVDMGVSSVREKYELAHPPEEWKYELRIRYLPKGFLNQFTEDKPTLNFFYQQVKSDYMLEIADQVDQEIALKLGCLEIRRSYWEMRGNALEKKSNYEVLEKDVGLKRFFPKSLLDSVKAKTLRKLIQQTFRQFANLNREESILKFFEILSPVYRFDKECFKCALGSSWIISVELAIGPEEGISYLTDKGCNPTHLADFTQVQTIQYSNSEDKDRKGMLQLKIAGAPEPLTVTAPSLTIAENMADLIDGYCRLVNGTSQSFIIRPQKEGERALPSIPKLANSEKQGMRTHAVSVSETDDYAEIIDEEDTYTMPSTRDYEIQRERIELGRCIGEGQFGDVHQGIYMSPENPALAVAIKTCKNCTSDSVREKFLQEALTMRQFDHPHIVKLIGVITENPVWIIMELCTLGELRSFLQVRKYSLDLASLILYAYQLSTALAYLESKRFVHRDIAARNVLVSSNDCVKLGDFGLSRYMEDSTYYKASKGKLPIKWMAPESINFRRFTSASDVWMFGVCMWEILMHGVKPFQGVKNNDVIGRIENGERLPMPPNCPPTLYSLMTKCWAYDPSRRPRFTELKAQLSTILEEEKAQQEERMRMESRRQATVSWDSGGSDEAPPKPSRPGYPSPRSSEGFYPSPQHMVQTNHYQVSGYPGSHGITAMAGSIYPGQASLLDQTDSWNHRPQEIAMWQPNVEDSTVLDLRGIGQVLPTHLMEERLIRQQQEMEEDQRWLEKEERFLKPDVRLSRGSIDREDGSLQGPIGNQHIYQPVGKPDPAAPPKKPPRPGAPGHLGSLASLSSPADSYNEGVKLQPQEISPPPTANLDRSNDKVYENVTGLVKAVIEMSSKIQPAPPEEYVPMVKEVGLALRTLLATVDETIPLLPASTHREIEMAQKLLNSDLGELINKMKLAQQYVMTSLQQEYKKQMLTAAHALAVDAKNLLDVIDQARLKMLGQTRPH", "settings": "pretreated 1 hour; VnP-16 9.1 μg/cm^2"}, "[2]": {"system": "osteoblast precursors and osteogenic cells", "protocol": "SKP-derived mesenchymal cells (MSCs), mouse calvarial osteoblast precursors (MC3T3-E1), and human osteogenic cells (Osteogenic) were cultured on VnP-16 (9.1 μg/cm^2)-coated plates in osteogenic differentiation medium with or without PF-573228 (1 μM) for 2 weeks.\nTo visualize mineral deposits, cells were fixed with cold 95% ethanol for 30 minutes at −20° C. for 30 minutes and stained with 40 mM Alizarin red S solution (pH 4.2) for 1 hour. The stained cells were washed five times with DDW and rinsed with PBS for 15 minutes."}, "[3]": {"system": "rat models with critical-size calvarial defects", "assay": "Rat critical-size calvarial defect model", "format": "in vivo", "settings": "collagen sponge implant, two weeks after surgery", "procedure": "For critical-size calvarial defects, 8-week-old male Sprague-Dawley rats (n=5 rats/group) were used. VnP-16 was dissolved in DDW and SP in DMSO (5 mg/mL) and then diluted with DDW. Absorbable collagen sponges (Bioland) were loaded with human recombinant BMP-2 (4 μg/cm^2, 15 μL volume; PeproTech), synthetic peptides (1 mg/cm^2 and 2 mg/cm^2, 15 μL volume), or vehicle (10 μL of DMSO and 5 μL of DDW). The surgical procedures for the creation of an 8 mm circular defect in the parietal bone and implantation of the collagen sponge were performed as described in the reference (Lee, J. H., et al., Biomaterials, 31, 3512 to 3519 (2010)). The rats were euthanized at 2 weeks after surgery, and whole calvaria were fixed in 4% paraformaldehyde at 4° C. for 24 hours and analyzed by μCT scanning. Details for the μCT scans are illustrated below.\nFor histomorphometric analysis, the specimens were decalcified with 12% EDTA for 4 weeks and embedded in paraffin. […] The mice were sacrificed on day 7, and the whole calvariae were dissected, cleaned of soft tissue, fixed in 4% paraformaldehyde at 4° C. for 24 hours, subjected to TRAP staining, and then analyzed by μCT scanning. μCT was performed with the Micro-CT Skyscan 1172 system (70 kV, 141 μA, and 38 minutes integration time; Skyscan). […] The regenerated bone volume and bone mineral content were calculated with CT Analyser version 1.14.4.1 (Bruker-microCT). […]"}, "osteogenic cells [4]": {"system": "osteogenic cells", "assay": "Cell spreading assay on coated plates", "format": "cell-based, human", "settings": "serum-free medium, 3 hours", "from_the_text": "(§1) Plates were gently washed three times with PBS."}, "mature osteoclasts": {"system": "mature osteoclasts", "assay": "Viability of mature osteoclasts (surviving osteoclasts after TRAP staining)", "format": "cell-based, mouse", "settings": "24 hours, 9.1 μg/cm^2", "procedure": "The results of FIGS. 12b and 12c are expressed as mean±S.D. (n=4) ([…].)\nMature osteoclasts were cultured for 24 hours on Osteo Assay Surface plates precoated with vehicle (DMSO), SP (9.1 μg/cm^2), or VnP-16 (9.1 μg/cm^2), in the presence of M-CSF (30 ng/mL) and RANKL (100 ng/mL)."}, "[5]": {"system": "osteogenic cells, NHDFs, NHOFs, MC3T3-E1, and NIH/3T3 cells", "assay": "Cell viability assay (water-soluble tetrazolium salt, WST)", "format": "cell-based, human", "settings": "VnP-16 for 24 hours and 48 hours", "procedure": "The viability of human osteogenic cells was analyzed using the EZ-Cytox cell viability assay kit (water-soluble tetrazolium salt (WST) assay; Daeillab). Osteogenic cells (3×10^3 cells/100 μL) were seeded on a 96-well microplate, adapted for 48 hours, and treated with 50 μg/mL, 100 μg/mL, or 200 μg/mL of VnP-16 at 37° C. for 24 hours or 48 hours. The WST reagent solution (10 μL) was added to each well of the 96-well microplate containing 100 μL of cells. The plate was incubated at 37° C. for 2 hours. The absorbance was measured at 450 nm using a microplate reader (BioRad)."}, "BMMs": {"system": "BMMs", "assay": "Proliferation and viability of BMMs", "format": "cell-based, mouse", "settings": "9.1 μg/cm^2"}, "β1 integrin": {"molecular_target": "T1, β1 integrin (Homo sapiens, UniProt P05556)", "T1 construct": "osteogenic cells that were transfected with a control (Con) siRNA (10 nM) or β1 integrin siRNA (10 nM); endogenous in cells; host or cells: human osteogenic cells differentiated from foreskin skin-derived precursors (SKPs)", "T1 sequence (P05556 21-798)": "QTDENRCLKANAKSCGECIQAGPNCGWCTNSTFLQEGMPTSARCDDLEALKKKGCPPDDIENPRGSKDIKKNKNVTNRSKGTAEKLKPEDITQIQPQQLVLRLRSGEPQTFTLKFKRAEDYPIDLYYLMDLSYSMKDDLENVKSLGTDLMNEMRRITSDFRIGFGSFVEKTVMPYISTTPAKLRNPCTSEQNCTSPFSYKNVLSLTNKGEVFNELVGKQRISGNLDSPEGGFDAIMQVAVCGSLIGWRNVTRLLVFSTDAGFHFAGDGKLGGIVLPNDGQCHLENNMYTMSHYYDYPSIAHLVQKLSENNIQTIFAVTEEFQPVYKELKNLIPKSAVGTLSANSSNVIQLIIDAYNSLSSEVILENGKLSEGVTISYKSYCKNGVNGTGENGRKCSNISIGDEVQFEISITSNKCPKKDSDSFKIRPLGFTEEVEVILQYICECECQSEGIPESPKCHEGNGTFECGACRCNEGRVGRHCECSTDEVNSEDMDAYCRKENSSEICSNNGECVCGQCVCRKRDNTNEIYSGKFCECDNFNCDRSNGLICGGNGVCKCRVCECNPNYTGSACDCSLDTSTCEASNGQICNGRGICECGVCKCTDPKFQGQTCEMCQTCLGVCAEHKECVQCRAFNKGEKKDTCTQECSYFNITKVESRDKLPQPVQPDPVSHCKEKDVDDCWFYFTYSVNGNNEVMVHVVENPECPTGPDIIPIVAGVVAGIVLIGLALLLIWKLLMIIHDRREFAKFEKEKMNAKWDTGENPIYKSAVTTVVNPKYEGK", "assay": "Pulldown assay with biotinylated VnP-16", "format": "binding", "settings": "human osteogenic cells and HOS cells, 3 hours; vs streptavidin beads alone", "procedure": "Pulldown assays were performed using a biotinylated VnP-16 peptide according to a known method (Bottcher, R. T., Bio protocol 3, e962 (2013)). […] Cells (3×10^6) were seeded onto 100 mm culture dishes coated with biotin-conjugated VnP-16 peptides, incubated for 3 hours, and washed twice with cold PBS. The cells were scraped with 500 μL lysis buffer (50 mM Tris-HCl, pH 7.5, 150 mM NaCl, 0.1% Na-deoxycholate, 1% Triton X-100, protease, and phosphatase inhibitor cocktail tablets) followed by passing the lysates 15 times through a 26.5-gauge needle and centrifuging at 17,000×g for 10 minutes at 4° C. The supernatants of the cell lysates were incubated with 60 μL of streptavidin-agarose beads (Thermo Fisher Scientific, Waltham, Mass.) and centrifuged at 1,500×g for 2 minutes at 4° C. After washing the beads four times with lysis buffer, the precipitated proteins were resolved by 8% SDS-PAGE and analyzed by immunoblotting."}, "human osteogenic cells": {"system": "human osteogenic cells", "assay": "Cell attachment assay on coated plates", "format": "cell-based", "settings": "for coating concentration at which cell attachment activity reached a maximum level: osteogenic cells, dose-response; for cell attachment activity of osteogenic cells: substrate-coated plates, serum-free medium, 1 hour", "from_the_text": "as §1"}, "osteogenic cells [6]": {"system": "osteogenic cells", "assay": "Cell migration assay (transwell)", "format": "cell-based, human", "settings": "24 hours", "procedure": "Cell migration assays were performed with transwell migration chambers (pore size, 8 μm; Corning). […] Cells (2×10^5 cells/mL) were resuspended in DMEM containing 0.5% FBS and 0.1% BSA. This suspension (100 μL) was seeded in the upper chamber of a transwell filter. After seeding the […] (100 μL) to the upper chamber of the transwell migration chambers, the cells were allowed to migrate at 37° C. for 24 hours. Cells were then fixed with 10% formalin for 15 minutes and stained with 0.5% crystal violet. Unmigrated cells, those remaining in the upper side of the transwell filter, were removed with a cotton swab and counted under light microscopy. Cell migration was quantified by counting the number of cells that had migrated through the filter."}, "[7]": {"settings": "VnP-16-coated plates, osteogenic differentiation medium, PF-573228 1 μM, 2 weeks"}}, "note": "Entries after “also recorded” stand apart in the source; their conditions may differ. Where no end group is shown, it is not given here.", "data": [{"molecule": "O=C(O)CN(CCN(CC(=O)O)CC(=O)O)CC(=O)O", "note": "[EDTA]", "values": [{"measurement": "cell attachment to VnP-16 after pretreatment of cells", "setting": "osteogenic cells [1]", "result": "completely inhibited"}]}, {"molecule": "[Cl][Mn][Cl]", "note": "[Mn^2+, MnCl2]", "values": [{"measurement": "cell attachment to VnP-16 after pretreatment of cells", "setting": "osteogenic cells [1]", "result": "significantly enhanced"}]}, {"molecule": "CS(=O)(=O)c1cccc(CNc2nc(Nc3ccc4c(c3)CCC(=O)N4)ncc2C(F)(F)F)c1", "note": "[PF-573228]", "values": [{"measurement": "cell attachment to VnP-16 after pretreatment of PF-573228", "setting": "FAK", "result": "significantly inhibited in a dose-dependent manner"}, {"measurement": "cell growth", "setting": "[2]", "result": "did not affect"}, {"measurement": "alkaline phosphatase (ALP) activity", "setting": "[2]; [7]", "result": "notably weakened"}, {"measurement": "calcium deposition", "setting": "[2]; [7]", "result": "reduced"}]}, {"molecule": "FVWRQFYKYEKG (SEQ ID NO: 23) (Scrambled peptide) [SP, scrambled peptide used as control, reference compound]", "values": [{"measurement": "new bone formation in calvarial defects (μCT images)", "setting": "[3]", "result": "only limited new bone formation"}, {"measurement": "cell spreading", "setting": "osteogenic cells [4]", "result": "ineffective"}]}, {"molecule": "RVYFFKGKQYWE-NH2 [VnP-16, RVYFFKGKQYWE (SEQ ID NO: 17)]", "values": [{"measurement": "viability of osteoclasts", "setting": "mature osteoclasts", "result": "no effect"}, {"measurement": "viability of cells or cell lines tested", "setting": "[5]", "result": "did not affect"}, {"measurement": "cell proliferation and viability of BMMs", "setting": "BMMs", "result": "did not affect"}]}, {"molecule": "biotinylated VnP-16: biotin-conjugated VnP-16 peptide used for pulldown (RVYFFKGKQYWE-NH2; also: biotinylated)", "values": [{"measurement": "binding of β1 integrin in pulldown", "setting": "β1 integrin", "result": "selectively bound"}]}, {"molecule": "heparin", "values": [{"measurement": "cell attachment to VnP-16 after pretreatment of cells", "setting": "osteogenic cells [1]", "result": "not inhibited"}]}, {"molecule": "B1", "values": [{"measurement": "cell spreading", "setting": "osteogenic cells [4]", "result": "induced no cell spreading or migration"}, {"measurement": "coating concentration at which cell attachment activity reached a maximum level", "setting": "human osteogenic cells", "result": "about 5.7 μg/cm^2"}, {"measurement": "cell attachment activity of osteogenic cells", "setting": "human osteogenic cells", "result": "lower cell attachment activity compared to that of rVn-FI; also recorded: adhered; also recorded: promoted cell attachment, although to a lower extent than full-length vitronectin; also recorded: significant cell attachment activity"}, {"measurement": "cell migration", "setting": "osteogenic cells [6]", "result": "induced no cell spreading or migration"}]}, {"molecule": "B2", "values": [{"measurement": "cell spreading", "setting": "osteogenic cells [4]", "result": "strongly promoted"}, {"measurement": "cell attachment activity of osteogenic cells", "setting": "human osteogenic cells", "result": "strongly promoted"}, {"measurement": "cell migration", "setting": "osteogenic cells [6]", "result": "strongly promoted"}]}, {"molecule": "B3", "values": [{"measurement": "cell spreading", "setting": "osteogenic cells [4]", "result": "induced cell spreading and migration"}, {"measurement": "coating concentration at which cell attachment activity reached a maximum level", "setting": "human osteogenic cells", "result": "about 5.7 μg/cm^2"}, {"measurement": "cell attachment activity of osteogenic cells", "setting": "human osteogenic cells", "result": "adhered; also recorded: promoted cell attachment, although to a lower extent than full-length vitronectin"}, {"measurement": "cell migration", "setting": "osteogenic cells [6]", "result": "induced cell spreading and migration"}]}, {"molecule": "B4", "values": [{"measurement": "cell spreading", "setting": "osteogenic cells [4]", "result": "induced no cell spreading or migration"}, {"measurement": "cell attachment activity of osteogenic cells", "setting": "human osteogenic cells", "result": "did not adhere"}, {"measurement": "cell migration", "setting": "osteogenic cells [6]", "result": "induced no cell spreading or migration"}]}]}
